The target in the assay is T1, β catenin (UniProt P35222 2-781).
T1 construct: Detected with antibody Sc7199 (Santa-Cruz)
T1 sequence (looked up): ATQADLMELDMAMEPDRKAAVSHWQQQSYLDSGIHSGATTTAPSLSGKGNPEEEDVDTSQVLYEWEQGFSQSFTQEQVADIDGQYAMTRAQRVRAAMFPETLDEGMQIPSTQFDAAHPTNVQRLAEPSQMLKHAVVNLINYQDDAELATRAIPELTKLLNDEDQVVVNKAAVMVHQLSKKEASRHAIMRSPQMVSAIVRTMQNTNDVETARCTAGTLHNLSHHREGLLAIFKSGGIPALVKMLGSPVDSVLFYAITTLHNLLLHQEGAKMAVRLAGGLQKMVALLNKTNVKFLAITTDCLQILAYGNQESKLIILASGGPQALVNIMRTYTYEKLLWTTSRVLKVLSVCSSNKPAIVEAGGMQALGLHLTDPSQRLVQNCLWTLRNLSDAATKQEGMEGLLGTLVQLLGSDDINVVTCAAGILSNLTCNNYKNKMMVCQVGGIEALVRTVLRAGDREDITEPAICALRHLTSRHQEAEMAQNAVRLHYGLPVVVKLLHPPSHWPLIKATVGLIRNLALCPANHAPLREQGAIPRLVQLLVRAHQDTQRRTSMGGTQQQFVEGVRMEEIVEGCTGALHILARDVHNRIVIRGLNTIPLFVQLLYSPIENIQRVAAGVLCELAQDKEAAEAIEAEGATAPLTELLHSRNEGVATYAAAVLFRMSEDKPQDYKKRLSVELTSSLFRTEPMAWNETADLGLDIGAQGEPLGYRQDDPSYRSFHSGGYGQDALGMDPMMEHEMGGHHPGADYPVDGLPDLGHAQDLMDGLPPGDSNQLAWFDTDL
Description: in situ prox-HCR and in situ PLA on DLD1 cells and colon tissue.
Description: For in situ PLA experiments the DuoLink kit (Olink Bioscience) was used according to manufacturer recommendations. Briefly DLD1 cells were rehydrated and permeabilized as described for prox-HCR. […] Cells were washed with DuoLink Wash buffer A two time for 5 min and incubated with proximity probes (PLUS and MINUS, Olink Bioscience) in antibody diluent (Olink Bioscience) for 1 h at 37° C. After a new round of washing steps ligation mix was applied to the cells and incubated for 30 min at 37° C. Additional washing was followed by RCA and fluorescent detection of the rolling circle products. Cells were counterstained with Hoechst and mounted as described above.
Fresh frozen healthy colon tissue was fixed using 3.7% formaldehyde solution at RT for 15 min. Slides were washed with PBS twice and then blocked using Duolink blocking reagent for 60 min at 37° C. […] The next day the slides were washed with PBS 3×2 min and blocked again for 30 min. The slides were incubated with proximity-probes directed against mouse and rabbit IgG for 1 h at 37° C. in HCR buffer. After two more washes with HCR buffer the slides were incubated with activator oligonucleotides for 30 min at 37° C. Slides were washed again twice with HCR buffer and slides were incubated with 20 nM HCR hairpins in HCR buffer for 1 h at 37° C. […]

B1: E-cadherin (receptor, UniProt P12830 155-882, looked up)
chain: DWVIPPISCPENEKGPFPKNLVQIKSNKDKEGKVFYSITGQGADTPPVGVFIIERETGWLKVTEPLDRERIATYTLFSHAVSSNGNAVEDPMEILITVTDQNDNKPEFTQEVFKGSVMEGALPGTSVMEVTATDADDDVNTYNAAIAYTILSQDPELPDKNMFTINRNTGVISVVTTGLDRESFPTYTLVVQAADLQGEGLSTTATAVITVTDTNDNPPIFNPTTYKGQVPENEANVVITTLKVTDADAPNTPAWEAVYTILNDDGGQFVVTTNPVNNDGILKTAKGLDFEAKQQYILHVAVTNVVPFEVSLTTSTATVTVDVLDVNEAPIFVPPEKRVEVSEDFGVGQEITSYTAQEPDTFMEQKITYRIWRDTANWLEINPDTGAISTRAELDREDFEHVKNSTYTALIIATDNGSPVATGTGTLLLILSDVNDNAPIPEPRTIFFCERNPKPQVINIIDADLPPNTSPFTAELTHGASANWTIQYNDPTQESIILKPKMALEVGDYKINLKLMDNQNKDQVTTLEVSVCDCEGAAGVCRKAQPVEAGLQIPAILGILGGILALLILILLLLLFLRRRAVVKEPLLPPEDDTRDNVYYYDEEGGGEEDQDFDLSQLHRGLDARPEVTRNDVAPTLMSVPRYLPRPANPDEIGNFIDENLKAADTDPTAPPYDSLLVFDYEGSGSEAASLSSLNSSESDKDQDYDYLNEWGNRFKKLADMYGGGEDD
notes: whole, on cells; Detected with antibody 610182 (BD Biosciences)
For B1, the binding result is on record as “binds”.

(Values after patent US20170009278A1 (NAVINCI DIAGNOSTICS, published 2017).)
